Test results published in US20140087995A1 (published 2014).
Numbered stars: 1 amine (or outer) side, 2 acyl side, 3 side chain; on linkers, the order of the positions; unused ones are H or OH. Bridge positions count the residues as written; N and C are the ends. Side chains are listed from the residue outwards. Ends that are not written are not given here. * marks the point of attachment. C20 diacid = O=C(O)CCCCCCCCCCCCCCCCCCC(=O)*; γGlu = O=C(O)[C@H](CCC(=O)[*:2])N[*:1]; AEEA = NCCOCCOCC(=O)O

T1: rat calcitonin receptor (rat, UniProt P32214 25-516)
T1 construct: whole, on cells; Used as membranes prepared from the transfected cells; also called rCTR; rCT
T1 sequence (looked up): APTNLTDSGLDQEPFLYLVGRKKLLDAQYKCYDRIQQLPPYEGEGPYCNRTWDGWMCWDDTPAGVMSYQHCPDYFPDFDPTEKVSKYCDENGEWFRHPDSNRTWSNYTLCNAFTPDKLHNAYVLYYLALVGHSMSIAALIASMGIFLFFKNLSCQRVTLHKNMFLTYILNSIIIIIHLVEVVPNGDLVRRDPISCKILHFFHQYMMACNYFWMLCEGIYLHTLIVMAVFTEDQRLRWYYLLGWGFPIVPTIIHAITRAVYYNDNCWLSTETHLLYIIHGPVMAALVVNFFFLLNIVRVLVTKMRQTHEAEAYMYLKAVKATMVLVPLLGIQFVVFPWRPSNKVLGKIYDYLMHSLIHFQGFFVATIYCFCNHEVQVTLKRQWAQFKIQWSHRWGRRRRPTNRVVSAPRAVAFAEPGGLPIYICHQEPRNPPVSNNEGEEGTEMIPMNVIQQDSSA

T2: human calcitonin receptor (human, UniProt P30988 25-474)
T2 construct: whole, on cells; Used as membranes prepared from the transfected cells; also called hCTR; hCT
T2 sequence (looked up): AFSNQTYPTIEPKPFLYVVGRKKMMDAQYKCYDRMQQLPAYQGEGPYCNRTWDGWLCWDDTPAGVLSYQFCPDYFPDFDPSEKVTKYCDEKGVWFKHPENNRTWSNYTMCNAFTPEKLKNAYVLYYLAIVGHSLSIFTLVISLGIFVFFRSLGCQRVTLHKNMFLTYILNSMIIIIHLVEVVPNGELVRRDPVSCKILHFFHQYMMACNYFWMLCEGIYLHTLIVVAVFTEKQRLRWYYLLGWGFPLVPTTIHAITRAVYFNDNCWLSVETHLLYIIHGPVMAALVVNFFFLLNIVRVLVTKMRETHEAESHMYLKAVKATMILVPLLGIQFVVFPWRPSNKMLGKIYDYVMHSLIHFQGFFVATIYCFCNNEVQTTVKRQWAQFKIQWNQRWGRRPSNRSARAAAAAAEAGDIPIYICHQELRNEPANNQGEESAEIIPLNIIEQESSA

B1: N^ε1-[2-[2-[2-[[(4S)-4-carboxy-4-(19-carboxynonadecanoylamino)butanoyl]amino]ethoxy]ethoxy]acetyl]-[Arg14,Arg17,Pro21,Pro27]-h-amylin (peptide)
peptide: K([AEEA-γGlu-C20 diacid])CNTATCATQRLARFLRHSSPNFGAIPSSTNVGSNTY-NH2
modifications: disulfide 2-7; N-terminus assumed
SMILES: CC[C@H](C)[C@H](NC(=O)[C@H](C)NC(=O)CNC(=O)[C@H](Cc1ccccc1)NC(=O)[C@H](CC(N)=O)NC(=O)[C@@H]1CCCN1C(=O)[C@H](CO)NC(=O)[C@H](CO)NC(=O)[C@H](Cc1c[nH]cn1)NC(=O)[C@H](CCCNC(=N)N)NC(=O)[C@H](CC(C)C)NC(=O)[C@H](Cc1ccccc1)NC(=O)[C@H](CCCNC(=N)N)NC(=O)[C@H](C)NC(=O)[C@H](CC(C)C)NC(=O)[C@H](CCCNC(=N)N)NC(=O)[C@H](CCC(N)=O)NC(=O)[C@@H](NC(=O)[C@H](C)NC(=O)[C@@H]1CSSC[C@H](NC(=O)[C@@H](N)CCCCNC(=O)COCCOCCNC(=O)CC[C@H](NC(=O)CCCCCCCCCCCCCCCCCCC(=O)O)C(=O)O)C(=O)N[C@@H](CC(N)=O)C(=O)N[C@@H]([C@@H](C)O)C(=O)N[C@@H](C)C(=O)N[C@@H]([C@@H](C)O)C(=O)N1)[C@@H](C)O)C(=O)N1CCC[C@H]1C(=O)N[C@@H](CO)C(=O)N[C@@H](CO)C(=O)N[C@H](C(=O)N[C@@H](CC(N)=O)C(=O)N[C@H](C(=O)NCC(=O)N[C@@H](CO)C(=O)N[C@@H](CC(N)=O)C(=O)N[C@H](C(=O)N[C@@H](Cc1ccc(O)cc1)C(N)=O)[C@@H](C)O)C(C)C)[C@@H](C)O
notes: Analogue of human amylin; disulfide and C-terminal amide as told for h-amylin; also called compound 82
B2: N^ε1-[2-[2-[2-[[(4S)-4-carboxy-4-(19-carboxynonadecanoylamino)butanoyl]amino]ethoxy]ethoxy]acetyl]-[Arg17,Pro21,Pro27,His34]-h-amylin (peptide)
peptide: K([AEEA-γGlu-C20 diacid])CNTATCATQRLANFLRHSSPNFGAIPSSTNVGHNTY-NH2
modifications: disulfide 2-7; N-terminus assumed
SMILES: CC[C@H](C)[C@H](NC(=O)[C@H](C)NC(=O)CNC(=O)[C@H](Cc1ccccc1)NC(=O)[C@H](CC(N)=O)NC(=O)[C@@H]1CCCN1C(=O)[C@H](CO)NC(=O)[C@H](CO)NC(=O)[C@H](Cc1c[nH]cn1)NC(=O)[C@H](CCCNC(=N)N)NC(=O)[C@H](CC(C)C)NC(=O)[C@H](Cc1ccccc1)NC(=O)[C@H](CC(N)=O)NC(=O)[C@H](C)NC(=O)[C@H](CC(C)C)NC(=O)[C@H](CCCNC(=N)N)NC(=O)[C@H](CCC(N)=O)NC(=O)[C@@H](NC(=O)[C@H](C)NC(=O)[C@@H]1CSSC[C@H](NC(=O)[C@@H](N)CCCCNC(=O)COCCOCCNC(=O)CC[C@H](NC(=O)CCCCCCCCCCCCCCCCCCC(=O)O)C(=O)O)C(=O)N[C@@H](CC(N)=O)C(=O)N[C@@H]([C@@H](C)O)C(=O)N[C@@H](C)C(=O)N[C@@H]([C@@H](C)O)C(=O)N1)[C@@H](C)O)C(=O)N1CCC[C@H]1C(=O)N[C@@H](CO)C(=O)N[C@@H](CO)C(=O)N[C@H](C(=O)N[C@@H](CC(N)=O)C(=O)N[C@H](C(=O)NCC(=O)N[C@@H](Cc1c[nH]cn1)C(=O)N[C@@H](CC(N)=O)C(=O)N[C@H](C(=O)N[C@@H](Cc1ccc(O)cc1)C(N)=O)[C@@H](C)O)C(C)C)[C@@H](C)O
notes: Analogue of human amylin; disulfide and C-terminal amide as told for h-amylin; also called compound 76
B3: N^ε1-[2-[2-[2-[[(4S)-4-carboxy-4-(19-carboxynonadecanoylamino)butanoyl]amino]ethoxy]ethoxy]acetyl]-[Arg17,Pro21,Pro27,Arg34]-h-amylin (peptide)
peptide: K([AEEA-γGlu-C20 diacid])CNTATCATQRLANFLRHSSPNFGAIPSSTNVGRNTY-NH2
modifications: disulfide 2-7; N-terminus assumed
SMILES: CC[C@H](C)[C@H](NC(=O)[C@H](C)NC(=O)CNC(=O)[C@H](Cc1ccccc1)NC(=O)[C@H](CC(N)=O)NC(=O)[C@@H]1CCCN1C(=O)[C@H](CO)NC(=O)[C@H](CO)NC(=O)[C@H](Cc1c[nH]cn1)NC(=O)[C@H](CCCNC(=N)N)NC(=O)[C@H](CC(C)C)NC(=O)[C@H](Cc1ccccc1)NC(=O)[C@H](CC(N)=O)NC(=O)[C@H](C)NC(=O)[C@H](CC(C)C)NC(=O)[C@H](CCCNC(=N)N)NC(=O)[C@H](CCC(N)=O)NC(=O)[C@@H](NC(=O)[C@H](C)NC(=O)[C@@H]1CSSC[C@H](NC(=O)[C@@H](N)CCCCNC(=O)COCCOCCNC(=O)CC[C@H](NC(=O)CCCCCCCCCCCCCCCCCCC(=O)O)C(=O)O)C(=O)N[C@@H](CC(N)=O)C(=O)N[C@@H]([C@@H](C)O)C(=O)N[C@@H](C)C(=O)N[C@@H]([C@@H](C)O)C(=O)N1)[C@@H](C)O)C(=O)N1CCC[C@H]1C(=O)N[C@@H](CO)C(=O)N[C@@H](CO)C(=O)N[C@H](C(=O)N[C@@H](CC(N)=O)C(=O)N[C@H](C(=O)NCC(=O)N[C@@H](CCCNC(=N)N)C(=O)N[C@@H](CC(N)=O)C(=O)N[C@H](C(=O)N[C@@H](Cc1ccc(O)cc1)C(N)=O)[C@@H](C)O)C(C)C)[C@@H](C)O
notes: Analogue of human amylin; disulfide and C-terminal amide as told for h-amylin; also called compound 78
B4: N^ε1-[2-[2-[2-[[(4S)-4-carboxy-4-(19-carboxynonadecanoylamino)butanoyl]amino]ethoxy]ethoxy]acetyl]-[Gly14,Arg17,Pro21,Pro27,Pro31]-h-amylin (peptide)
peptide: K([AEEA-γGlu-C20 diacid])CNTATCATQRLAGFLRHSSPNFGAIPSSTPVGSNTY-NH2
modifications: disulfide 2-7; N-terminus assumed
SMILES: CC[C@H](C)[C@H](NC(=O)[C@H](C)NC(=O)CNC(=O)[C@H](Cc1ccccc1)NC(=O)[C@H](CC(N)=O)NC(=O)[C@@H]1CCCN1C(=O)[C@H](CO)NC(=O)[C@H](CO)NC(=O)[C@H](Cc1c[nH]cn1)NC(=O)[C@H](CCCNC(=N)N)NC(=O)[C@H](CC(C)C)NC(=O)[C@H](Cc1ccccc1)NC(=O)CNC(=O)[C@H](C)NC(=O)[C@H](CC(C)C)NC(=O)[C@H](CCCNC(=N)N)NC(=O)[C@H](CCC(N)=O)NC(=O)[C@@H](NC(=O)[C@H](C)NC(=O)[C@@H]1CSSC[C@H](NC(=O)[C@@H](N)CCCCNC(=O)COCCOCCNC(=O)CC[C@H](NC(=O)CCCCCCCCCCCCCCCCCCC(=O)O)C(=O)O)C(=O)N[C@@H](CC(N)=O)C(=O)N[C@@H]([C@@H](C)O)C(=O)N[C@@H](C)C(=O)N[C@@H]([C@@H](C)O)C(=O)N1)[C@@H](C)O)C(=O)N1CCC[C@H]1C(=O)N[C@@H](CO)C(=O)N[C@@H](CO)C(=O)N[C@H](C(=O)N1CCC[C@H]1C(=O)N[C@H](C(=O)NCC(=O)N[C@@H](CO)C(=O)N[C@@H](CC(N)=O)C(=O)N[C@H](C(=O)N[C@@H](Cc1ccc(O)cc1)C(N)=O)[C@@H](C)O)C(C)C)[C@@H](C)O
notes: Analogue of human amylin; disulfide and C-terminal amide as told for h-amylin; also called compound 71

What follows are binders tested against T1, rat calcitonin receptor (assay: SPA competition with 125I-calcitonin, membranes with rat calcitonin receptor (Assay VIII)).

Row | Binder | IC50
1 | B1 | 143 nM
2 | B2 | 38.9 nM
3 | B3 | 90.6 nM
4 | B4 | 44.8 nM

These binders were tested against T1, rat calcitonin receptor (assay: ratio of binding IC50 at rat calcitonin receptor to IC50 at rat amylin receptor (reference)).

Row | Binder | Ratio rCT/rAmylin binding
5 | B1 | 87
6 | B2 | 56.8
7 | B3 | 69.9
8 | B4 | 162

What follows are binders tested against T2, human calcitonin receptor (assay: ratio of binding IC50 at human calcitonin receptor to IC50 at human amylin receptor (reference)).
Method: The resulting pellet was resuspended, homogenized and centrifuged (20.000 rpm, 15 min) in a buffer containing 20 mM Na-HEPES and 0.1 mM EDTA (pH 7.4, buffer 2). The resulting pellet was resuspended in buffer 2 and protein concentration was measured (BCA protein Assay, Pierce). The homogenate was kept cold during the whole procedure. The membranes were kept at −80° C. until use. The assay was performed in a 384 well Optiplate (PerkinElmer) in a total volume of 40 ul. Membranes were mixed with SPA beads. Final concentration of membranes 35 ng/μL final and SPA beads was 0.05 mg/well. Test-compounds were dissolved in DMSO and further diluted in assay buffer (50 mM Hepes, pH 7.4, 1 mM CaCl2, 5 mM MgCl₂, 0.1% OA and 0.02% Tween20). […] The final mixture was incubated with shaking at 400 rpm for 120 min at 25° C. prior to centrifugation (1500 rpm, 10 min). Samples were analyzed on TopCounter™ (Packard). The IC₅₀ was calculated using (one site binding competition analysis) GraphPad Prism5 as a measure of receptor affinity.
Membranes were prepared in the following way; the cells were rinsed with PBS and incubated with Versene for approximately 5 min before harvesting. The cells were flushed with PBS and the cell-suspension was centrifuged for 5 min at 1000 rpm. Cells were homogenized (Ultrathurrax) in a buffer containing 20 mM Na-HEPES and 10 mM EDTA (pH 7.4) and centrifuged at 20.000 rpm for 15 min. The resulting pellet was resuspended, homogenized and centrifuged (20.000 rpm, 15 min) in a buffer containing 20 mM Na-HEPES and 0.1 mM EDTA (pH 7.4, buffer 2). The resulting pellet was resuspended in buffer 2 and protein concentration was measured (BCA protein Assay, Pierce). The homogenate was kept cold during the whole procedure. The membranes were kept at −80° C. until use. Assay was performed in a 384 well Optiplate (PerkinElmer) in a total volume of 40 ul. Membranes were mixed with SPA beads.

Row | Binder | Ratio hCT/hAmylin binding
9 | B1 | 140
10 | B2 | 80
11 | B3 | 60.7
12 | B4 | 32
